Experimental data taken from patent US6133417.

B1: cytochrome P-450TYR from Sorghum bicolor (L.) Moench (enzyme)
chain: ATMEVEAAAATVLAAPLLSSSAILKLLLFVVTLSYLARALRRPRKSTTKCSSTTCASPPAGVGNPPLPPGPVPWPVVGNLPEMLLNKPAFRWIHQMMREMGTDIACVKLGGVHVVSITCPEIAREVLRKQDANFISRPLTFASETFSGGYRNAVLSPYGDQWKKMRRVLTSEIICPSRHAWLHDKRTDEADNLTRYVYNLATKAATGDVAVDVRHVARHYCGNVIRRLMFNRRYFGEPQADGGPGPMEVLHMDAVFTSLGLLYAFCVSDYLPWLRGLDLDGHEKIVKEANVAVNRLHDTVIDDRWRQWKSGERQEMEDFLDVLITLKDAQGNPLLTIEEVKAQSQDITFAAVDNPSNAVEWALAEMVNNPEVMAKAMEELDRVVGRERLVQESDIPKLNYVKACIREAFRLHPVAPFNVPHVALADTTIAGYRVPKGSHVILSRTGLGRNPRVWDEPLRFYPDRHLATAASDVALTENDLRFISFSTGRRGCIAASLGTAMSVMLFGRLLQGFTWSKPAGVEAVDLSESKSDTFMATPLVLHAEPRLPAHLYPSISI

Tests used:
[1] = molecular target: NADPH-cytochrome P-450 oxidoreductase purified from Sorghum bicolor (Sorghum bicolor)
[2] = molecular target: NADPH-cytochrome P-450 oxidoreductase purified from Sorghum bicolor (Sorghum bicolor); remark: listed apart in the source

Row | oxime production in reconstitution experiments in dilaurylphosphatidylcholine micelles (turnover rate) (nmol oxime per nmol P-450TYR per minute) [1] | conversion of L-tyrosine to p-hydroxyphenylacetaldehyde oxime by the enzyme reconstituted in DLPC micelles (turn-over number) [2] [min⁻¹] | Molecule
1 | 349 |  | modified cytochrome P-450TYR, in which the 35 N-terminal amino acids are replaced by the nine N-terminal amino acids from bovine 17alpha hydroxylase, expressed in E. coli (from UniProt P05185) (enzyme)
2 |  | 228 | B1
